According to US20190225669A1 (ACCELERON PHARMA, published 2019):

Tests used:
[1] = molecular target: T1, BMP9 (UniProt Q9UK05 320-429); assay: Biacore SPR; kinetics indeterminate (transient)
T1 construct: also called GDF2
T1 sequence (looked up): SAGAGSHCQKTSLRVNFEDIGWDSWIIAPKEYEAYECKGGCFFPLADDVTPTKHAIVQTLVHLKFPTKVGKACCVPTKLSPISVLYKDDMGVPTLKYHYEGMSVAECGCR
Experimental: (§1) Ligands were injected and allowed to flow over the captured receptor protein.

[2] = molecular target: T2, activin A (UniProt P08476 311-426); assay: Biacore SPR
T2 sequence (looked up): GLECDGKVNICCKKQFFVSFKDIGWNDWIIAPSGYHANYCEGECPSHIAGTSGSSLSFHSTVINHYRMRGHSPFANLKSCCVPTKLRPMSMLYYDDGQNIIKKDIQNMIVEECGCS
Experimental: as §1

[3] = molecular target: T3, BMP4 (UniProt P12644 293-408); assay: Biacore SPR
T3 sequence (looked up): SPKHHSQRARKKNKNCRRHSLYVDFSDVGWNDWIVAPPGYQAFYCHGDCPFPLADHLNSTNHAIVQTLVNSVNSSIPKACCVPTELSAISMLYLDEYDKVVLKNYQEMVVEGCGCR
Experimental: as §1

[4] = molecular target: T4, GDF11 (UniProt O95390 299-407); assay: Biacore SPR
T4 construct: also called BMP11
T4 sequence (looked up): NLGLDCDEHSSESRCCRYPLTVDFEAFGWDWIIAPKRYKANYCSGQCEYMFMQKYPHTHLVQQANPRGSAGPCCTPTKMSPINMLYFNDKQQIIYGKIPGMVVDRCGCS
Experimental: as §1

[5] = molecular target: T5, GDF3 (UniProt Q9NR23 251-364); assay: Biacore SPR
T5 sequence (looked up): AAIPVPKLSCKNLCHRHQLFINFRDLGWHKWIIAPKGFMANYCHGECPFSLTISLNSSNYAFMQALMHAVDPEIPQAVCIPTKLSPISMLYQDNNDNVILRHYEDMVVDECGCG
Experimental: as §1

[6] = molecular target: T6, GDF8 (UniProt O14793 267-375); assay: Biacore SPR
T6 construct: also called myostatin
T6 sequence (looked up): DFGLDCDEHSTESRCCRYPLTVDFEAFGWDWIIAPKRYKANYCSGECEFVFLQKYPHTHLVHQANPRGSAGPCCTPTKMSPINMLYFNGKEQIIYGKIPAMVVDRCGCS
Experimental: as §1

[7] = molecular target: T7, GDF5 (UniProt P43026 382-501); assay: Biacore SPR
T7 construct: also called BMP14
T7 sequence (looked up): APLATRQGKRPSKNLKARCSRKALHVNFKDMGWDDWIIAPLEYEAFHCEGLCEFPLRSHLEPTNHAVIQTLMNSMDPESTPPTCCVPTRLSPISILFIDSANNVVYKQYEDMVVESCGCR
Experimental: as §1

[8] = molecular target: T8, BMP5 (UniProt P22003 317-454, limits assumed); assay: Biacore SPR
T8 sequence (looked up): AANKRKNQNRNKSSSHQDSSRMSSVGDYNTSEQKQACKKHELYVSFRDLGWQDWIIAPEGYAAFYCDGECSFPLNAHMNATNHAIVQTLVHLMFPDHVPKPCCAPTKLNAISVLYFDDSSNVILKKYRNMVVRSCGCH
Experimental: as §1

[9] = molecular target: T9, activin B (UniProt P09529 293-407); assay: Biacore SPR
T9 sequence (looked up): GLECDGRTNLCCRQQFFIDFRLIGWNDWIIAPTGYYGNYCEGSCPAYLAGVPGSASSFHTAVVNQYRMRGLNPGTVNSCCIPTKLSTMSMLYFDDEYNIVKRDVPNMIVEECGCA
Experimental: as §1

[10] = molecular target: BMP2 (UniProt P12643 283-396); assay: Biacore SPR
Experimental: as §1

[11] = molecular target: T10, BMP7 (UniProt P18075 293-431); assay: Biacore SPR
T10 sequence (looked up): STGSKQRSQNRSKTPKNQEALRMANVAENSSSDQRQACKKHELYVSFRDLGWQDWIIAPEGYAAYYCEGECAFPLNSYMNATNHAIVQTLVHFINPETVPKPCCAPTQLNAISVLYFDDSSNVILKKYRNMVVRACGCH
Experimental: as §1

[12] = molecular target: T11, BMP6 (UniProt P22004 382-513, limits assumed); assay: Biacore SPR
T11 sequence (looked up): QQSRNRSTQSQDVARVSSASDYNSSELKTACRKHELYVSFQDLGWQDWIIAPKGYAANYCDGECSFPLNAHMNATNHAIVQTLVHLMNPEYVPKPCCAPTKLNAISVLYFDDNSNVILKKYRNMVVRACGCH
Experimental: as §1

[13] = molecular target: T12, GDF7 (UniProt Q7Z4P5 322-450, limits assumed); assay: Biacore SPR
T12 construct: also called BMP12
T12 sequence (looked up): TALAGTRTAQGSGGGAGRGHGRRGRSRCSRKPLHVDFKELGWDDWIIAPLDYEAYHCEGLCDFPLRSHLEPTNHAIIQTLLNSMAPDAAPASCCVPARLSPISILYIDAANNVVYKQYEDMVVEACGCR
Experimental: as §1

[14] = molecular target: T13, GDF6 (UniProt Q6KF10 336-455, limits assumed); assay: Biacore SPR
T13 construct: also called BMP13
T13 sequence (looked up): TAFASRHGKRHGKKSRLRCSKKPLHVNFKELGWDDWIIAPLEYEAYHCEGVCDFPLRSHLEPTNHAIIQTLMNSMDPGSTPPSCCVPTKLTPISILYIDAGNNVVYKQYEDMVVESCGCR
Experimental: as §1

[15] = molecular target: T14, BMP10 (UniProt O95393 317-424); assay: Biacore SPR
T14 sequence (looked up): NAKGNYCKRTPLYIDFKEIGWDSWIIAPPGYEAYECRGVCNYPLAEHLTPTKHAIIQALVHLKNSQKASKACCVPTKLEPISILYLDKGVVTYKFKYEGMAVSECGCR
Experimental: as §1

Sequence of BMP2 (P12643 283-396 limits assumed): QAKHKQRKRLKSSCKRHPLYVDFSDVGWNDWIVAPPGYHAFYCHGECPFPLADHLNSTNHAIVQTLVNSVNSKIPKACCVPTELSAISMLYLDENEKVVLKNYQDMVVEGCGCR

B1: ActRIIB-Fc:ALK3-Fc heterodimer (Fc fusion)
chain 1: GRGEAETRECIYYNANWELERTNQSGLERCEGEQDKRLHCYASWRNSSGTIELVKKGCWLDDFNCYDRQECVATEENPQVYFCCCEGNFCNERFTHLPEAGGPEVTYEPPPTAPTGGGTHTCPPCPAPELLGGPSVFLFPPKPKDTLMISRTPEVTCVVVDVSHEDPEVKFNWYVDGVEVHNAKTKPREEQYNSTYRVVSVLTVLHQDWLNGKEYKCKVSNKALPAPIEKTISKAKGQPREPQVYTLPPSRKEMTKNQVSLTCLVKGFYPSDIAVEWESNGQPENNYKTTPPVLKSDGSFFLYSKLTVDKSRWQQGNVFSCSVMHEALHNHYTQKSLSLSPGK
chain 2: GAQNLDSMLHGTGMKSDSDQKKSENGVTLAPEDTLPFLKCYCSGHCPDDAINNTCITNGHCFAIIEEDDQGETTLASGCMKYEGSDFQCKDSPKAQLRRTIECCRTNLCNQYLQPTLPPVVIGPFFDGSIRTGGGTHTCPPCPAPELLGGPSVFLFPPKPKDTLMISRTPEVTCVVVDVSHEDPEVKFNWYVDGVEVHNAKTKPREEQYNSTYRVVSVLTVLHQDWLNGKEYKCKVSNKALPAPIEKTISKAKGQPREPQVYTLPPSREEMTKNQVSLTCLVKGFYPSDIAVEWESNGQPENNYDTTPPVLDSDGSFFLYSDLTVDKSRWQQGNVFSCSVMHEALHNHYTQKSLSLSPG
notes: C-terminal Lys optional; also called ActRIIB-Fc:ALK3-Fc heterodimeric complex
Kd [1]: > 33 nM | Kd [2]: 0.15 nM | koff [2]: 0.005 s⁻¹ | kon [2]: 3.4e+07 M⁻¹ s⁻¹ | Kd [3]: 0.003 nM | koff [3]: 6.5e-06 s⁻¹ | kon [3]: 2.6e+06 M⁻¹ s⁻¹ | Kd [4]: 0.066 nM | koff [4]: 0.0011 s⁻¹ | kon [4]: 1.6e+07 M⁻¹ s⁻¹ | Kd [5]: 5.9 nM | koff [5]: 0.082 s⁻¹ | kon [5]: 1.4e+07 M⁻¹ s⁻¹ | Kd [6]: 0.31 nM | koff [6]: 0.00092 s⁻¹ | kon [6]: 3e+06 M⁻¹ s⁻¹ | Kd [7]: 0.07 nM | koff [7]: 0.00083 s⁻¹ | kon [7]: 1.2e+07 M⁻¹ s⁻¹ | Kd [8]: 0.64 nM | koff [8]: 0.00058 s⁻¹ | kon [8]: 900000 M⁻¹ s⁻¹ | Kd [9]: 0.2 nM | koff [9]: 0.00057 s⁻¹ | kon [9]: 2.8e+06 M⁻¹ s⁻¹ | Kd [10]: 0.001 nM | koff [10]: 1.1e-05 s⁻¹ | kon [10]: 8e+06 M⁻¹ s⁻¹ | Kd [11]: 1.9 nM | koff [11]: 0.0015 s⁻¹ | kon [11]: 820000 M⁻¹ s⁻¹ | Kd [12]: 0.015 nM | koff [12]: 0.00029 s⁻¹ | kon [12]: 2e+07 M⁻¹ s⁻¹ | Kd [13]: 0.052 nM | koff [13]: 0.0004 s⁻¹ | kon [13]: 7.5e+06 M⁻¹ s⁻¹ | Kd [14]: 1.6 nM | koff [14]: 0.00045 s⁻¹ | kon [14]: 280000 M⁻¹ s⁻¹ | Kd [15]: 0.031 nM | koff [15]: 0.00094 s⁻¹ | kon [15]: 3e+07 M⁻¹ s⁻¹
